The source of these data is patent publication US5972351A, “Plasmodium falciparum MHC class I-restricted CTL epitopes derived from pre-erythrocytic stage antigens” (Isis Innovation Limited, priority 1992, dated 1999).

In one experiment the target is T1, HLA-B53 (Homo sapiens, UniProt P01889, A329T/A93T/A95T/C349S/D201E/D98Y/E176V/E187L/E204Q/E69T/G107R/I218V/K202T/L105A/L119I/N104I/Q94N/R106L/R155S/R180L/S101N/S121R/S35A/S48A/T118I/V127L/V306I/V36M/Y140S/Y91F).
T1 construct: by transfection with a genomic clone of HLA-B53 using hygromycin selection; expressed in transfected cells; host or cells: T2-B53 (T2 cells transfected with a genomic clone of HLA-B53); lysates of 35S-methionine-labelled cells
The experiment in a line: HLA assembly assay (peptide binding to HLA-B53). The following applies: lysates of T2-B53 cells; all peptides initially tested at 4 μM.

A further experiment deals with B53 matched target cells. The experiment in a line: CTL assay with HIV-2 gag restimulated CTL. The format is cell-based, human. Conditions: CTL from one HLA-B53 positive HIV-2 infected Gambian.

Protocol for HLA-B53: Briefly, the mutant cell line T2-B53 was derived from T2 cells of HLA type, HLA-A2, -B51, by transfection with a genomic clone of HLA-B53 using hygromycin selection. […] Peptide concentrations were determined with a Micro BCA colourimetric assay (Pierce). Peptides were added to lysates of ^35 S-methionine-labelled cells and incubated overnight at 4° C.^36. Stable assembled class I molecules were then precipitated with monoclonal antibodies W6/32^34 (reactive with all assembled class I molecules) or MHM5^41 (reactive with assembled HLA-B but not HLA-A molecules).

In the case of ALSEGCTPYDINQMLNNCVGD [P1], the “binding to HLA-B53 in the HLA assembly assay” value with HLA-B53 was “positive result”. In the experiment on B53 matched target cells, the “recognition of peptide-pulsed targets by HIV 2-gag restimulated CTL” value is “recognised”.
